From the DeepSol protein solubility set

assay: soluble on expression in E. coli; label from the status in PepcDB or PDB records

Sequence | soluble on expression in E. coli
MEIRKKLVDPSKYCIKCPYTMNPEFITVHNTYNDATAENEVAYMIRNDNQVSFHIAVDDKEAVQGIPLERNAWHTGDGNGNGNRKSIGVEICYSLSGGDRYYKAEDNAAIVVAQLMKQYNIPIKKVRTHQSWSGKYCPHRMLAEGRWNNFIERVQNAYNGDGKVTPTLIPPSTNGTGIAYIEGNGINLRKGLGTGYGVIRQLGKGESYEVWGQSNGWLNLGGNQWIYNDSSYIRYTGESTPTSSQSVNNGVGIVTITADVLRVRKGPGTNYDIVKNVYQGEQYQSWGYRDGWYNVGGDQWVSGEYVKFED | not soluble
MAHHHHHHMMRQNLTSDSLITDTLRKAGVPCDVVGIVETVAGACRAIAAGLRNDGVTAAKSKNNFGDDVLSVDVMADKIISEALNSCQHVASYVSEESPSLASTAHSGKATYSVSYDPLDGSSIITSNFTVGSIFAVWPGNTPIGLTVRDMAASVVAVYGPRVVLFVGQEELGVAEFFCGADGEWKLAKRVWAGVCTPRTATVTAAGRGVKLKATVFSPGNLRAVRHLPWYKQLITMYMQEGATLRYTGGMVPDVCQIIVKGDGIYMTPASPQHKMKLRLLFEAAPMAFLIHCAGGRSTTGLTNMMNVRVVSMEQTTPIALGCARDVERYERMCRGCSKL | soluble
MNEEQRKAGTINILAERDRKAEKDYSKYFEQVYQPPSLKEAKKRGKQEVQYNRDFHIDEKYKGMGKGRTFLIKTYGCQMNAHDTEVMAGILNALGYSATSDINEADVILINTCAIRENAENKVFSEIGNLKHLKKERPDCLIGVCGCMSQEESVVNKILKSYQNVDMVFGTHNIHHLPEILEEAYLSKAMVVEVWSKEGDIIENLPKVRDGHIKAWVNIMYGCDKFCTYCIVPFTRGKERSRRPEDIIDEVRELAREGYQEITLLGQNVNSYGKDIEGLDYELGDLLEDISKIDIPRVRFTTSHPWDFTDRMIEVIAKGGNIVPHIHLPVQSGNNQVLKIMGRKYTRESYLDLVSRIKEAIPNVALTTDIIVGYPNETEEQFEETLSLYDDVQFEHAYTYLYSQRDGTPAAKMKDNVPLEVKKERLQRLNKKVGIYSQQAMSQYEGKIVTVLCEGSSKKDENVLAGYTDKNKLVNFKGPRESIGKLVDVKIDEAKQYSLNGTFIQEHQRSMVTQLEHHHHHH | soluble
MGHHHHHHSHMTSETPDYLLKYAAISSSEQRQSYKNDFNAEYSEYRDLHARIERITRRFTQLDAQLRQLSQGSEEYETTRGQILQEYRKIKKTNTNYSQEKHRCEYLHSKLAHIKRLIAEYDQRQLQAWP | soluble
AGGLKYDLDLNLSHYKSVLKSMANPDYLYEYGALRTYVGGEIGEFWVYQTAGIFQNQAEVDEWNTAHGYKDQNGNWQPLQPVAKPGDIRFIDQNGDGMLDTNDRVKVGSGTPKVSLGFNINLTYKDFDLVANFYGDFGAKRYNYTKYQLERMDHVFNYGKNALNAWTPENPDTDIPRAVSGDPNKNSRTSTRFVENGDYLRLNNLQIGYNLPVKYCKKMGLSNLRIYVGATRLFTITNYKGYDPSTGSSVGQMGYDYAAIPLSRDFMMGLKFGF | not soluble
MKKTQRKEIENVTNITGVRQIELWRRDDLQHPRLDEVAEEVPVALVYNGISHVVMMASPKDLEYFALGFSLSEGIIESPRDIFGMDVVPSCNGLEVQIELSSRRFMGLKERRRALAGRTGCGVCGVEQLNDIGKPVQPLPFTQTFDLNKLDDALRHLNDFQPVGRLTGCTHAAAWMLPSGELVGGHEDVGRHVALDKLLGRRSQEGESWQQGAVLVSSRASYEMVQKSAMCGVEILFAVSAATTLAVEVAERCNLTLVGFCKPGRATVYTHPQRLSN | not soluble
MSLSKKFYPNSQAFLLEKKDLKTIDRKINANKGNFGHIYIVANASAGTLAGLGALNFGAGLVSLVAQKSFSPLLMLKEKIENNASAIALGMGLENLDFLKDEILQNTPLILDANCFLSEALLWYLNRKDVVITPHPKEFIKLYKMCFDENLDIETLQKNRFFYARKFSQNYDCVLVLKGANPIIVQKEKLFVVNLGNQALAKGGSGDVLSGMIAAHLGFGFSALEAAKNATLAHGLVAKKYKFNKNSFDALKLIKGLKCLEGHHHHHH | not soluble
MAKSEEIIRERYKVMAPRIIKALNQRNFEAYFCETSEKAVECALSLIPQGASVAWGGSMTLEEIGLIQRLKEGNYQVIDRDTAKSQEERFSLMRQALLSDVYLASVNAMSEDGIMVNIDGRGNRISAIAFGPKTVILVVGMNKICRDLESARKRAHTYAAPNNALRLGLELPCTKTGCCFDCNKNNPSSICAQIVEMHSSIVPGRIKVILVGENLGL | soluble
MSAEVETSEGVDESEKKNSGALEKENQMRMADLSELLKEGTKEAHDRAENTQFVKDFLKGNIKKELFKLATTALYFTYSALEEEMERNKDHPAFAPLYFPMELHRKEALTKDMEYFFGENWEEQVQCPKAAQKYVERIHYIGQNEPELLVAHAYTRYMGDLSGGQVLKKVAQRALKLPSTGEGTQFYLFENVDNAQQFKQLYRARMNALDLNMKTKERIVEEANKAFEYNMQIFNELDQAGSTLARETLEDGFPVHDGKGDMRKCPFYAAEQDKGALEGSSCPFRTAM | soluble
APEWTEEDLSQLTRSMVKFPGGTPGRWEKIAHELGRSVTDVTTKAKQLKDSVTCSPGMV | soluble
MSGKTKRLMVMAGGTGGHVFPGLAVAHHLMAQGWQVRWLGTADRMEASLVPQHGIEIDFIKISGLRGKGLMAQLTAPIRIYRAVRQAQKIMRDYQPNVVLGMGGYVSGPGGLAAWLCGVPVVLHEQNGIAGLTNRWLARIAKKVLQAFPGAFPNADVVGNPVRTDVLALPLPAVRLSGREGPIRVLVIGGSQGARILNQTLPLVAASLGEQITLWHQVGKGALPEVSQAYQQAGQAGHLVVEFIDDMAAAYAWADVVVCRSGALTVSEVAAAGLPAIFVPFQHKDRQQYWNALPLEKAGAAKIIEQPQFTATSVSSLLASWDRATLLSMAERARSVAIPDATERVAAEVVAASKSA | not soluble
MGSDKIHHHHHHMREGSIVKLESLINQKYSNLNQTEKEILAFIIENRDFVRKASLSEVAEKSLFSKSAIFRCCKKIGLTGFSQLRYVLTDEKDSEQDSLISVDYLAQTVKSMLWTVNQFKSTNADDIYATLAAAGTIYIYSTGWQQQIMAQQLQRDLYLIGKFAFVFPTGHDEMQLSSTKIKPGDAVIVISYKGMNATIVQLVNNLKLNGVRIVSFTSFRQNRLAQAANFNLYYDIINKTVGIERKTERFFANLTLLIDIFSMGFANYLVAKEERDHEHGEYGQRKSK | not soluble
MSLADVDTGTLTIKGNIAESPCKFEAGGDSVSINMPTVPTSVFEGKAKYSTYDDAVGVTSSMLKISCPKEVAGVKLSLITNDKITGNDKAIASSNDTVGYYLYLGDNSDVLDVSAPFNIESYKTAEGQYAIPFKAKYLKLTDNSVQSGDVLSSLVMRVAQDEGHHHHHH | soluble
MSLKIAKVEALSVAMGDGTGWMPTSAFVRITAEDGTVGWGEASPMLGGIASLGVVARDIAPFLEGQEVLDHAVLLDRMMHRLVKLGPEGIATAALAACDIALWDLKGKLLGQPIYKLLGGAWRTRLPCYSSIGGNAARSVDEVVREVARRVEAEQPAAVKIRWDGDRTRCDVDIPGDIAKARAVRELLGPDAVIGFDANNGYSVGGAIRVGRALEDLGYSWFEEPVQHYHVGAMGEVAQRLDITVSAGEQTYTLQALKDLILSGVRMVQPDIVKMGGITGMMQCAALAHAHGVEFVPHQTQPGVGHFANIHVLSTLMHMTKPVELADRWDRGRPVFRNPAEPVDGHFALGDAPGLGIVVDEDELASRATEITVGRDQRPPAGGQYEGHHHHHH | soluble
MSSSREENVYLAKLAEQAERYEEMVEFMEKVAKTVDTDELTVEERNLLSVAYKNVIGARRASWRIISSIEQKEESRGNDDHVSIIKDYRGKIETELSKICDGILNLLDSHLVPTASLAESKVFYLKMKGDYHRYLAEFKTGAERKEAAESTLVAYKSAQDIALADLAPTHPIRLGLALNFSVFYYEILNSPDRACSLAKQAFDEAISELDTLGEESYKDSTLIMQLLRDNLTLWNSDINDEAGGDEIKEASKHEPEEGKPAETGQ | soluble
SEKKECPEKSSSSEEELPRRDSGSSRNIDASKLIRLQGSRKLLVDNSIRELQYTKTGIFFQAEACVTNDTVYRELPCVSETLCDISHFFQEDDETEAEPLLFRAVPECQLSGGDIPSVSEEQESSEGQDSGDICSEENQIVSSYASKVCFEIEEDYKNRQFLGPEGNVDVELIDKSTNRYSVWFPTAGWYLWSATGLGFLVRDEVTVTIAFGSWSQHLALDLQHHEQWLVGGPLFDVTAEPEEAVAEIHLPHSISLQAGEVDVSWFLVAHFKNEGMVLEHPARVEPFYAVLESPSFSLMGILLRIASGTRLSIPITSNTLIYYHPHPEDIKFHLYLVPSDALLTKAIDDEEDRFHGVRLQTSPPMEPLNFGSSYIVSNSANLKVMPKWISSL | soluble
KANFQWETGFTFSVNKNTIKKLYGEYETIVDALGNTIVKERDDVTNGWFIGHPVSAIWDYKVTGIWQKDEVKEAAKYSQRPGDPKVQNIYTDDDKVNADGSVTPVYNNKDKQFMGETTPPIHWSLRNSFTIFKDWVFSFNMYSYMGHKSLDTNYLNNDNNYSQITNCRNVYTKEYWTVDNPSNTYARLSAQGPTGISAPARVIDRSFIRLENISLAYNIPMKFLEKYKIQNAKIFTTVRNVATWSKEWEYGDPETGGLAPRTYSLGINLTF | not soluble
MMKKIAITCALLSSLVASSVWADAASDLKSRLDKVSSFHASFTQKVTDGSGAAVQEGQGDLWVKRPNLFNWHMTQPDESILVSDGKTLWFYNPFVEQATATWLKDATGNTPFMLIARNQSSDWQQYNIKQNGDDFVLTPKASNGNLKQFTINVGRDGTIHQFSAVEQDDQRSSYQLKSQQNGAVDAAKFTFTPPQGVTVDDQRK | soluble
MGKSASKQFHNEVLKAHNEYRQKHGVPPLKLCKNLNREAQQYSEALASTRILKHSPESSRGQCGENLAWASYDQTGKEVADRWYSEIKNYNFQQPGFTSGTGHFTAMVWKNTKKMGVGKASASDGSSFVVARYFPAGNVVNEGFFEENVLPPKK | soluble
MGHHHHHHSHKELQRRRRSLALPGLQGCAELRQKLSLNFHSLCEQQPIGRRLFRDFLATVPTFRKAATFLEDVQNWELAEEGPTKDSALQGLVATCASAPAPGNPQPFLSQAVATKCQAATTEEERVAAVTLAKAEAMAFLQEQPFKDFVTSAFYDKFLQWKLFEMQPVSDKYFTEFRVLGKGGFGEVCAVQVKNTGKMYACKKLDK | soluble
MNEIKTSCASTDRKWSTWESIDWNKCVIAVNKLQARIVKAQKAGKHGRVKSLQWVLTHSFYAKALAVKRVTSNSGSDTAGVDKVKWSTPNARFKAIGELKRRGYKPQPLKRVNIKKSNGKLRPLGIPTMKDRAMQALYLLALEPVSETTADSNSYGFRKERSTGDAREQCFCVLAKKASPEWIMEGDIQGCFDHISHEWLLNNIPMDKVMLRKWLKCGFVFNKELFPTEEGTPQGGIISPTLANMTLDGLQTMLAEKYHKKFVTRKTTTYYPKVHLVRYADDFIITGRNKEALEEIKPLVVDFLKERGLTLSEEKTKITHIDDGFDFLGYNIRKYKGVLLIKPSQKSLKKFMQKIRGIIDSNKGSKQESLIRLLNPVITGWVNYYKNCVASDTFRKADYLIFEKLWQWATRRHPKKGKYWIADRYFTRVKNRNWCFVANFKKGKTDDRIALKRLYDTKITRYVKVKGEANPFAPEWTEYFEKRKTYKMLQSLNGRKSLLYMWERQNHLCPVCGKPIDKEHPWGTSQQTVNGKKVNNLLHDSCRRKVIQTNKM | not soluble
MAENRYELNKNLAQMLKGGVIMDVQNPEQARIAEAAGAAAVMALERIPADIRAVGGVSRMSDPKMIKEIQGAVSIPVMAKVRIGHFVEAQILEAIEIDYIDESEVLSPADNRFHVDKKEFQVPFVCGAKDLGEALRRIAEGASMIRTKGEPGTGDIVQAVRHMRMMSQEIRRIQNLREDELYVAAKDLQVPVELVQYVHKHGKLPVVNFAAGGIATPADAALMMQLGAEGVFVGSGIFKSGDPIKRASAIVKAVTNYRNPQILAQISEDLGEAMVGINENEIQILMAERGKLEHHHHHH | not soluble
